Our source for the Kd values is paper PMC7092940 (2005).

This data set concerns the molecule itself.

B1: SARS 3CL proteinase (protein)
chain: SGFRKMAFPSGKVEGCMVQVTCGTTTLNGLWLDDTVYCPRHVICTAEDMLNPNYEDLLIRKSNHSFLVQAGNVQLRVIGHSMQNCLLRLKVDTSNPKTPKYKFVRIQPGQTFSVLACYNGSPSGVYQCAMRPNHTIKGSFLNGSCGSVGFNIDYDCVSFCYMHHMELPTGVHAGTDLEGKFYGPFVDRQTAQAAGTDTTITLNVLAWLYAAVINGDRWFLNRFTTTLNDFNLVAMKYNYEPLTQDHVDILGPLSAQTGIAVLDMCAALKELLQNGMNGRTILGSTILEDEFTPFDVVRQCSGVTFQ
For orientation: Kd means the concentration at which binding is half-saturated. A lower Kd goes with higher affinity. B1: the affinity, expressed as Kd, was 14 µM.
